Experimental findings from patent US20250250357A1 (NANJING ZAIMING PHARMACEUTICAL, published 2025) are described below.

Positions count from the first letter of the chain named.

Sequences and labels used below:
B1: S009-F7.18.10 chimeric antibody (antibody, human IgG1, kappa, V domains shown)
VH: QVQLQQSGAELVRPGTSVKVSCKASGYAFTNYLIEWVKQRPGQGLEWIGVINPGSGGTKYNEKFKGKATLTADKSSSTAYMQLSSLTSEDSAVYFCASDYDYDPFAYWGQGTLVTVSA
VL: DIVMTQSHKFMSTSVGDRVSITCKASQDVSTAVAWYQRKPGQSPKLLIYWASTRHTGVPDRFTGSGSGTDYTLTISYMQAEDLALYYCQQHYSTPYTFGGGTKLEIKR
notes: Human-murine chimeric antibody, human IgG1/kappa constant regions
B2: S009-F7.6.17 chimeric antibody (antibody, human IgG1, kappa, V domains shown)
VH: QVQLQQSGAELARPGASVKMSCKASGYTFTTYTMHWVKQRPGQGLEWIGYISPTGDFTKYNQKFKDKATLTTDKSSNTAFMQLSSLTSEDSAVYYCARWNGTVWFAYWGQGTLVTVSA
VL: DIVMTQSQKFMSTSVGDRVTVTCKASQALGTNVAWYQQKPGQSPKVLIYSASYRYSGVPYRFAGGGSGTDFTLTITNVQSEDLAEYFCQQYNNYPLTFGAGTKLELKR
notes: as for B1
B3: S009-F7.11.11 chimeric antibody (antibody, human IgG1, kappa, V domains shown)
VH: EVQLQQSGPELVKPGASVKIPCKASGYTITDYNMDWVKQSRGKSLEWIGDVFPYNGDSIYNQKFEGRATLTVDKYSSTAYMELRGLTSEDTAVYFCARRKTGTGYFDVWGTGTTVTVSS
VL: QLVLTQSPAIMSASPGEKVTLTCSASSSVSSTYLSWYLQKPGSSPKLWIYSTSNLASGVPARFSGSGSGTSYSLTISSMEAEDAASYFCHQWSSYPYTFGGGTKLEIKR
notes: as for B1
B4: S009-F7.12.13 chimeric antibody (antibody, human IgG1, kappa, V domains shown)
VH: EVQLQQSGPELVKPGASVKIPCKASGYTFTDYNMDWVKQSHGKGLEWIGDINPNTDDTIYNQKFNGKATLTVDKSSSTAYMELRSLTSEDTAVYYCSRRLIGTGYFDVWGTGTTVTVSS
VL: B3 VL with L2I, S30I, S35C, L38R, K46E, S94N, E106G, I107M
notes: as for B1
B5: S009-F7.2.3 chimeric antibody (antibody, human IgG1, kappa, V domains shown)
VH: ELQLVESGGDLVKPGGSLKLSCAASGFTFSSNGMSWLRQTPDKRLEWVATISSGGRYTYYPDSVKGRFTISRDNAKNTLYLQMSSLKSEDTAMYYCARRGIYDYFDCWGQGTTLTVSS
VL: DIQMTQSPASLSISVGETVTITCRASENIHSSLAWYQQKQGKSPQLLVYAATNLADGVPSRFSGSGSGSQYSLKINSLQSEDFGTYYCQHFWGTPWTFGGGTKLDIKR
notes: as for B1
B6: F3.80.22-H5 (scFv, not shown: small tags and cut ends)
scFv: DIVMTQTPLSLPVTPGEPASISCRSSQSLEHNDGNTYLHWFLQKPGQSPQLLIYKVSNRFSGVPDRFSGSGSGTDFTLKISRVEAEDVGVYYCSQSTHVPFTFGQGTKLEIKGGGGSGGGGSGGGGSEVQLVQSGAEVKKPGATVKISCKVSGYTFTDYEIHWVQQAPGKGLEWMGAFDPEIGGSAYNQKFKDRVTITADKSTDTAYMELSSLRSEDTAVYYCTDYYGSSSGYFDVWGQGTTVTVSS
notes: also called S009-F3.80.22 humanized antibody VL1a + VH1
B7: F3.80.22-H10 (scFv, not shown: small tags and cut ends)
scFv: B6 scFv with D33N, Q43H, V151A, D204S
notes: also called S009-F3.80.22 humanized antibody VL2 + VH2

One assay deals with T1, human MSLN-R1-his protein (human, UniProt Q13421 296-390).
T1 construct: Made in HEK293E cells, purified on nickel column; also called hMSLN-R1-his; human MSLN-R1 protein; not shown: His tag
T1 chain: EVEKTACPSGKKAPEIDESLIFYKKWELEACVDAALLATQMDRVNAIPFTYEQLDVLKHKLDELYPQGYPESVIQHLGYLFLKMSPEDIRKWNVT
Put plainly: ELISA, coated antigen, antibody 200 nM.
In the case of B1, the OD450 is 2.77.

With B2, the OD450 is 0.08.

For the molecule B3, the OD450 came to 0.06.

B4: the OD450 amounted to 0.06.

Molecule B5 gave an OD450 of 0.1.

For a further assay, the target named is T2, human MSLN-FL-his protein (human, UniProt Q13421 296-580).
T2 construct: Made in HEK293E cells, purified on nickel column; also called hMSLN-FL-his; human MSLN full-length protein; not shown: His tag
Put plainly: ELISA, coated antigen, antibody 0.2 nM. On the technique in general: An ELISA detects its analyte on a solid surface through an enzyme-linked reagent.
Target sequence in this assay (Q13421 other isoform, or with tags, fused parts or gaps): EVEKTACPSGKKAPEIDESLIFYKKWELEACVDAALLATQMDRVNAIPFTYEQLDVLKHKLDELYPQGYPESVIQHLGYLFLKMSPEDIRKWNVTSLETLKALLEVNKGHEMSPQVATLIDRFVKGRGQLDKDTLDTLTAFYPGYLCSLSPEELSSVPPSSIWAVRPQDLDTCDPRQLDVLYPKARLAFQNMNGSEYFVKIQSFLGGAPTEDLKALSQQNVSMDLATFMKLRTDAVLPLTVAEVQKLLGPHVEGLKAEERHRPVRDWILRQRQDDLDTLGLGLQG
Consider B1, for which the OD450 was found to be 2.33.

The molecule B2 came in with an OD450 of 2.4.

In turn, B3 showed an OD450 of 1.54.

Turning to B4, the OD450 is 2.14.

Molecule B5 displayed an OD450 of 2.3.

In a further assay the target is T1, human MSLN-R1-his protein. The experiment in a line: ELISA, coated antigen, no antibody (blank).
B1: the OD450 is 0.08.

B2 returned an OD450 of 0.07.

Turning to B3, the OD450 was found to be 0.07.

In turn, B4 displayed an OD450 of 0.06.

Turning to B5, the OD450 is 0.07.

The next assay addresses T2, human MSLN-FL-his protein. Put plainly: ELISA, coated antigen, no antibody (blank).
Molecule B1 displayed an OD450 of 0.07.

B2 came in with an OD450 of 0.08.

In turn, B3 displayed an OD450 of 0.08.

In the case of B4, the OD450 was 0.06.

Take B5: the OD450 stood at 0.06.

Another assay has as its target T1, human MSLN-R1-his protein. The experiment in a line: ELISA, coated antigen, antibody 20 nM.
In turn, B1 registered an OD450 of 2.45.

Regarding B2, the OD450 stood at 0.06.

The molecule B3 gave an OD450 of 0.06.

Regarding B4, the OD450 is 0.06.

In turn, B5 registered an OD450 of 0.08.

For the next assay, the target named is T3, monkey MSLN on HEK293T-monkey MSLN recombinant cells (monkey).
T3 construct: Full-length precursor as transfected; processing on the cell is not described; also called HEK293-monkey MSLN
T3 chain: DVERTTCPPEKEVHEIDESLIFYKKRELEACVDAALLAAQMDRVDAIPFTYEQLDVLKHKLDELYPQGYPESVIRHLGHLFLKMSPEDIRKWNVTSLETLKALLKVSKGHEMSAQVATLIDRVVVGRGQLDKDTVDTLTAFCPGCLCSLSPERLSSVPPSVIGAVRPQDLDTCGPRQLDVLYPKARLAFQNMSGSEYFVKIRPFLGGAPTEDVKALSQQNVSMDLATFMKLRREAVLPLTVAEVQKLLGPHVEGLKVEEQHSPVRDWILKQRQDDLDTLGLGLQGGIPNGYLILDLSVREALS
Put plainly: FACS, HEK293T-monkey MSLN cells. (In flow cytometry, cells or beads pass a laser one at a time.)
As to B6, the Maximum_MFI was determined as 302 MFI and the binding result was “no binding”.

Take B7: the Maximum_MFI came out at 381 MFI and the binding result is reported as “no binding”.

A further assay addresses T1, human MSLN-R1-his protein. The experiment in a line: ELISA, coated antigen, antibody 2 nM.
The molecule B1 gave an OD450 of 2.45.

With B2, the OD450 amounted to 0.05.

B3 registered an OD450 of 0.05.

On to B4, for which the OD450 is 0.05.

B5 registered an OD450 of 0.08.

In a further assay the target is T4, human MSLN-hFc recombinant protein (human, UniProt Q13421 296-580).
T4 construct: Captured by an anti-human IgG antibody on the chip; also called human MSLN protein; Acro MSN-H5253
T4 sequence (Q13421 other isoform, or with tags, fused parts or gaps): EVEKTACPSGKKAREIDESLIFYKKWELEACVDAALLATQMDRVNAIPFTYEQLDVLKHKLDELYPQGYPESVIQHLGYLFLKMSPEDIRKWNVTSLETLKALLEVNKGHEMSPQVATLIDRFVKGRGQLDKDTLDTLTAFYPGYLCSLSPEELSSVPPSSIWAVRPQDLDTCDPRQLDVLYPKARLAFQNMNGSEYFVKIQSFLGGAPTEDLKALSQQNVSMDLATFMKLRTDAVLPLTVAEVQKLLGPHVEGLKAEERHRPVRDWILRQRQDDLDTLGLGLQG
The experiment in a line: SPR (Biacore 8K), MSLN-hFc captured, antibody injected. In general terms: In SPR one partner is held on a chip, and binding of the other changes the refractive index at the surface.
For B6, the Kd (commonly a measure of binding affinity in units of concentration) was 159 nM; the koff (in general, a measure of how fast the partners let go of each other) came out at 0.000565 s⁻¹; the association rate constant (kon) (commonly a measure of how fast the partners come together) came to 3560 M⁻¹ s⁻¹.

As for B7, the Kd amounted to 20.9 nM, the off-rate (koff) stood at 0.000177 s⁻¹ and the kon is 8470 M⁻¹ s⁻¹.

The next assay has as its target T2, human MSLN-FL-his protein. Put plainly: ELISA, coated antigen, antibody 20 nM.
B1 yielded an OD450 of 2.29.

On to B2, for which the OD450 was determined as 2.49.

In turn, B3 gave an OD450 of 2.35.

The molecule B4 showed an OD450 of 2.19.

B5 came in with an OD450 of 2.5.

The target of a further assay is T2, human MSLN-FL-his protein. The experiment in a line: ELISA, coated antigen, antibody 0.002 nM.
B1 came in with an OD450 of 0.97.

Turning to B2, the OD450 worked out at 0.84.

B3 came in with an OD450 of 0.16.

Molecule B4 yielded an OD450 of 0.6.

B5 returned an OD450 of 0.41.

The next assay has as its target T2, human MSLN-FL-his protein. Put plainly: ELISA, coated antigen, antibody 0.02 nM.
B1 returned an OD450 of 1.91.

B2 came in with an OD450 of 1.78.

In the case of B3, the OD450 is 0.41.

B4: the OD450 came to 1.44.

For B5, the OD450 was determined as 1.28.

The next assay addresses T2, human MSLN-FL-his protein. Put plainly: ELISA, coated antigen, antibody 2 nM.
Regarding B1, the OD450 came to 2.28.

Consider B2, for which the OD450 was 2.34.

B3 returned an OD450 of 2.13.

The molecule B4 displayed an OD450 of 2.21.

With B5, the OD450 is 2.5.

The next assay deals with T1, human MSLN-R1-his protein. Put plainly: ELISA, coated antigen, antibody 0.02 nM.
Consider B1, for which the OD450 was 2.05.

Take B2: the OD450 was 0.05.

The molecule B3 had an OD450 of 0.05.

The molecule B4 registered an OD450 of 0.05.

With B5, the OD450 worked out at 0.06.

Another assay has as its target T1, human MSLN-R1-his protein. Put plainly: ELISA, coated antigen, antibody 0.2 nM.
In turn, B1 registered an OD450 of 2.46.

In turn, B2 showed an OD450 of 0.05.

For B3, the OD450 turned out to be 0.05.

Take B4: the OD450 stood at 0.05.

In the case of B5, the OD450 stood at 0.06.

The target in the next assay is T5, human MSLN-R3 on HEK293T-hMSLN-R3 recombinant cells (human, UniProt Q13421 487-606).
T5 construct: the C-terminal limit is uncertain; also called human MSLN-R3 membrane protein
T5 sequence (Q13421 495-614): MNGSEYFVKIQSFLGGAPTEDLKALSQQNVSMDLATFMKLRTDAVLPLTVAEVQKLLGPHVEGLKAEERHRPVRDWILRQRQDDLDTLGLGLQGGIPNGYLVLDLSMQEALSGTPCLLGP
The experiment in a line: FACS, HEK293T-hMSLN-R3 cells.
B6: the EC50 (usually the concentration giving half of the maximal effect) is 5.29 nM and the Maximum_MFI was 1370 MFI.

Take B7: the EC50 is 1.99 nM and the Maximum_MFI turned out to be 1800 MFI.

In a further assay the target is T2, human MSLN-FL-his protein. Put plainly: ELISA, coated antigen, antibody 200 nM.
B1: the OD450 was 2.4.

In the case of B2, the OD450 is 2.75.

In turn, B3 registered an OD450 of 2.62.

B4 gave an OD450 of 2.65.

Regarding B5, the OD450 is 2.91.

A further assay addresses T2, human MSLN-FL-his protein. The experiment in a line: ELISA, coated antigen, antibody 0.0002 nM.
For B1, the OD450 came to 0.31.

As to B2, the OD450 is 0.22.

B3: the OD450 was found to be 0.08.

In turn, B4 had an OD450 of 0.15.

Regarding B5, the OD450 was found to be 0.15.

A further assay has as its target T1, human MSLN-R1-his protein. Put plainly: ELISA, coated antigen, antibody 0.0002 nM.
As to B1, the OD450 was 0.38.

As for B2, the OD450 amounted to 0.05.

Turning to B3, the OD450 was 0.05.

Molecule B4 displayed an OD450 of 0.05.

In the case of B5, the OD450 amounted to 0.06.

A further assay has as its target T1, human MSLN-R1-his protein. The experiment in a line: ELISA, coated antigen, antibody 0.002 nM.
As for B1, the OD450 came out at 1.17.

On to B2, for which the OD450 turned out to be 0.05.

The molecule B3 gave an OD450 of 0.05.

B4 had an OD450 of 0.05.

Molecule B5 registered an OD450 of 0.06.
